Source: patent publication US11814439

Assays:
[1] = target: C1q Receptor in the complement system (rabbit serum as the source of complement) (rabbit); assay: cell-based or functional assay
[2] = target: FcγIIIA Receptor on the effector cells (CD16 / FcγRIII) (human) (UniProt P08637); assay: cell-based or functional assay
[3] = target: CD20 on Jeko-1, Raji and Daudi cells (human) (UniProt P11836); assay: FACS on Raji cells, PE anti-human secondary antibody
[4] = target: CD20 on Jeko-1, Raji and Daudi cells (human) (UniProt P11836); assay: FACS on Daudi cells, PE anti-human secondary antibody

FcγIIIA Receptor on the effector cells (CD16 / FcγRIII) (human), sequence (P08637 17-254): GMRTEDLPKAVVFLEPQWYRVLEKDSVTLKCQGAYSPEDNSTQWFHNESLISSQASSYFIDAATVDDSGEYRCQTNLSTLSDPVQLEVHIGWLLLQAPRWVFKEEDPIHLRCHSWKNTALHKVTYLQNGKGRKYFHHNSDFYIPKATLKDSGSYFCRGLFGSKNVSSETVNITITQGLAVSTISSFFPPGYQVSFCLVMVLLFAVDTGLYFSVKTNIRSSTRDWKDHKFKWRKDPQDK
CD20 on Jeko-1, Raji and Daudi cells (human), sequence (P11836 whole entry): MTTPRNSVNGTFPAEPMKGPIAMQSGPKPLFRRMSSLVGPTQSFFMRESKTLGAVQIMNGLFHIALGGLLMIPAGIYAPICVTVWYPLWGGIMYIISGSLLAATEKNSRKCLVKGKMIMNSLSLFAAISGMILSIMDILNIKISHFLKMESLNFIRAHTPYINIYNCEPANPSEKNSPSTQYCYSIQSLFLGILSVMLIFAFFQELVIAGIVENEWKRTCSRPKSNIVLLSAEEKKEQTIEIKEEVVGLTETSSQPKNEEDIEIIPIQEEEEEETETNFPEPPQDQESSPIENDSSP

Substance | CDC EC50 (Jeko-1 cells, rabbit complement) [1] | EC50 of ADCC assay Using Primary NK Cells [2] | EC50 [3] | EC50 [4]
OCREVUS (ocrelizumab) (antibody) | 1.21 µg/mL | – | – | –
GAZYVA (obinutuzumab) (antibody) | – | 19 µg/mL | – | –
RITUXAN (rituximab) (antibody) | 0.245 µg/mL | 1390 µg/mL | – | –
ARZERRA (ofatumumab) (antibody) | 0.353 µg/mL | 500 µg/mL | 0.00873 ng/mL | 0.000793 ng/mL
